The record followed here is patent publication US20220119534A1 (DRAGONFLY THERAPEUTICS, published 2022).

Like-named read-outs stand apart in the source and are kept apart here. Bounds are passed on as bounds.

First the molecules themselves.
T1: recombinant human CLEC12A-His (human, UniProt Q5QGZ9 65-265)
T1 construct: also called hCLEC12A-His; hCLEC12A
T1 sequence: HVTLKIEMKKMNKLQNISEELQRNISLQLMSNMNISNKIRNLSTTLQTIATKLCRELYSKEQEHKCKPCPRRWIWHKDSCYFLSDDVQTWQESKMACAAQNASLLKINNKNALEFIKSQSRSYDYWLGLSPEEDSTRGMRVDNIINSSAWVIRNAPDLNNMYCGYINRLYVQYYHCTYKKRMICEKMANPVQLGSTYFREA

T2: cynomolgus CLEC12A expressed on RMA cells (cynomolgus monkey, UniProt A0A2K5WXQ4 7-271)
T2 construct: whole, on cells; also called cCLEC12A isogenic cell line
T2 sequence: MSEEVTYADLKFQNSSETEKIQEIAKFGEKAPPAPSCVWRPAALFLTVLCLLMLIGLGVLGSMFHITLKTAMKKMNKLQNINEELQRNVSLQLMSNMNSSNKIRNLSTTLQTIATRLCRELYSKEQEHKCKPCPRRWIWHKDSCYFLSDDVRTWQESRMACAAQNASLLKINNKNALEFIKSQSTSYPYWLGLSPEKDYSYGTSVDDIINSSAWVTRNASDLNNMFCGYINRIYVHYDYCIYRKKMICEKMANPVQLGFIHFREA

T3: recombinant cynomolgus CLEC12A-His (cynomolgus monkey, UniProt A0A2K5WXQ4 71-271)
T3 construct: also called cCLEC12A-His; cCLEC12A
T3 sequence: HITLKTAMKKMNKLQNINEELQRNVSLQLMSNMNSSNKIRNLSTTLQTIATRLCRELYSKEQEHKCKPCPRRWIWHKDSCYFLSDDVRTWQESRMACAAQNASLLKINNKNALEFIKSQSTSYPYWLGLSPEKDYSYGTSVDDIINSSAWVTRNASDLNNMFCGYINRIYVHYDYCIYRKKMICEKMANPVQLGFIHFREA

T4: de-sialylated hCLEC12A (human, UniProt Q5QGZ9 65-265, terminal sialic acids removed (neuraminidase))
T4 construct: also called De-sialylated CLEC12A
T4 sequence: T1 sequence

T5: de-glycosylated hCLEC12A (human, UniProt Q5QGZ9 65-265, N-linked glycans removed (PNGase F))
T5 construct: also called PNGase-treated hCLEC12A; De-glycosylated CLEC12A
T5 sequence: T1 sequence

B1: AB0147 TriNKET (other)
chain: QLQLQESGPGLVKPSETLSLTCTVSGFSLTNYGLHWIRQPPGKCLEWIGVILSGGWTDYNPSLKSRVTISKDTSKNQFSLKLSSVQAADTAVYYCAKGDYGDALDYWGQGTLVTVSSGGGGSGGGGSGGGGSGGGGSDIQMTQSPSSLSASVGDRVTITCHASQNINFWLSWYQQKPGKAPKLLIYEASNLHTGVPSRFSGSGSGTRFTLTISSLQPEDIATYYCQQSHSYPLTFGCGTKLEIKGSDKTHTCPPCPAPELLGGPSVFLFPPKPKDTLMISRTPEVTCVVVDVSHEDPEVKFNWYVDGVEVHNAKTKPREEQYNSTYRVVSVLTVLHQDWLNGKEYKCKVSNKALPAPIEKTISKAKGQPREPRVYTLPPCRDELTKNQVSLTCLVKGFYPSDIAVEWESNGQPENNYKTTPPVLVSDGSFTLYSKLTVDKSRWQQGNVFSCSVMHEALHNHYTQKSLSLSPG
heavy: EVQLVESGGGLVKPGGSLRLSCAASGFTFSSYSMNWVRQAPGKGLEWVSSISSSSSYIYYADSVKGRFTISRDNAKNSLYLQMNSLRAEDTAVYYCARGAPIGAAAGWFDPWGQGTLVTVSSASTKGPSVFPLAPSSKSTSGGTAALGCLVKDYFPEPVTVSWNSGALTSGVHTFPAVLQSSGLYSLSSVVTVPSSSLGTQTYICNVNHKPSNTKVDKKVEPKSCDKTHTCPPCPAPELLGGPSVFLFPPKPKDTLMISRTPEVTCVVVDVSHEDPEVKFNWYVDGVEVHNAKTKPREEQYNSTYRVVSVLTVLHQDWLNGKEYKCKVSNKALPAPIEKTISKAKGQPREPQVCTLPPSRDELTENQVSLTCLVKGFYPSDIAVEWESNGQPENNYKTTPPVLDSDGSFFLYSWLTVDKSRWQQGNVFSCSVMHEALHNHYTQKSLSLSPG
light: DIQMTQSPSSVSASVGDRVTITCRASQGISSWLAWYQQKPGKAPKLLIYAASSLQSGVPSRFSGSGSGTDFTLTISSLQPEDFATYYCQQGVSFPRTFGGGTKVEIKRTVAAPSVFIFPPSDEQLKSGTASVVCLLNNFYPREAKVQWKVDNALQSGNSQESVTEQDSKDSTYSLSSTLTLSKADYEKHKVYACEVTHQGLSSPVTKSFNRGEC
B2: human CLEC12A expressed on cells (receptor)
chain: MSEEVTYADLQFQNSSEMEKIPEIGKFGEKAPPAPSHVWRPAALFLTLLCLLLLIGLGVLASMFHVTLKIEMKKMNKLQNISEELQRNISLQLMSNMNISNKIRNLSTTLQTIATKLCRELYSKEQEHKCKPCPRRWIWHKDSCYFLSDDVQTWQESKMACAAQNASLLKINNKNALEFIKSQSRSYDYWLGLSPEEDSTRGMRVDNIINSSAWVIRNAPDLNNMYCGYINRLYVQYYHCTYKKRMICEKMANPVQLGSTYFREA
notes: Transduced isogenic cells or endogenous expression on AML cells; also called RMA-hCLEC12A; Ba/F3-hCLEC12A
B3: 9F11.B7 (antibody, V domains shown)
VH: EVQLQESGGGLVQPGGSRKLSCAASGFTFNSFGMHWVRQAPEKGLEWVAFISSGSTSIYYANTVKGRFTISRDNPKNTLFLQMTSLRSEDTAMYYCARDGYPTGGAMDYWGQGTSVTVSS
VL: DIKMTQSPSSMYASLGERVTITCKASQDIYNYLSWFQLKPGKSPRPLIYRANILVSGVPSKFSGSGSGQDYSLTINSLEYEDLGIYYCLQFDAFPFTFGSGTKLEIK
notes: Murine mAb
B4: 9E4.B7 (antibody, V domains shown)
VH: EVQLQESGAELMKPGASVKISCRTTGYTFSTYWIEWVKQRPGRGPEWIGELFPGNSDTTLNEKFTGKATFTADSSSNTAYMQLSSLTSEDSAVYYCARSGYYGSSLDYWGQGTTLTVSS
VL: GIVMTQSPASLSASVGETVTITCRAGENIHSYLAWYQQKQGKSPQLLVYNAKTLAEGVPSRFSGSGSGTQFSLKINSLQPEDFGSYYCQHHYGTPRTFGGGTKLEIK
notes: Murine mAb; also called 9E04
B5: 16B8.C8 (antibody, V domains shown)
VH: EVQLQESGPGLVQPSQSLSITCTVSGFSLTNYGLHWVRQSPGKGLEWLGVIWSGGKTDYNTPFKSRLSISKDISKNQVFFKMNSLQPNDTAIYFCAKYDYDDSLDYWGQGTSVTVSS
VL: DIQMNQSPSSLSASLGDTIAITCHASQNINFWLSWYQQKPGNIPKLLIYEASNLHTGVPSRFSGSGSGTRFTLTISSLQPEDIATYYCQQSHSYPLTFGQGTKLEIK
notes: Murine mAb; also called 16B08; m16B8.C8

Assay [1] deals with B2. The assay can be described thus: flow cytometry on PL21 cells, surface-bound molecule after 2 h at 37 C relative to 20 min on ice.
Protocol: Human cancer cell lines HL60 and PL21 expressing human CLEC12A were used to assess surface retention of CLEC12A-TriNKETs after incubation with cells. PL21 or HL60 cells in duplicate plates were incubated with TriNKETs or mAbs as indicated. The first plate was moved to 37° C. for two hours, whereas the second plate was incubated on ice for 20 minutes. After the respective incubation times, cells were washed. Surface bound TriNKET or mAb was detected using a fluorescent secondary antibody for flow cytometry.
100,000 cells were seeded per well into duplicate 96-well plates for FACS staining. Cells were washed with FACS buffer. Test articles were diluted to 40 nM and were added to each of the duplicate plates. The first plate was incubated on ice for 2 hours, while the second plate was moved to 37° C. for two hours. After the incubation, cells were washed with PBS and cells were incubated in a 1:2000 dilution of live/dead dye in PBS for 15 minutes, then washed with FACS buffer. Anti-human IgG-Fc secondary antibody was diluted into FACS buffer, and 50 μl was added per well for detection of the bound TriNKETs or mAbs. Cells were incubated for 20 minutes on ice, then washed with FACS buffer. 50 μl of fixation buffer was added to each well, and cells were incubated for 10 minutes at room temperature. […] Surface retention was then calculated as follows:
The target of the next assay is T6, AB0300 (Homo sapiens (Human), UniProt P0DOX5 2-448 = IgG part; P0DOX7 1-214, L234A; L235A; P329G).
T6 construct: AB0237 with LALAPG in both Fc chains
The experiment in a line: flow cytometry on Ba/F3-hCLEC12A cells, fold over background. (In flow cytometry, cells or beads pass a laser one at a time.)

For assay [2], the target named is T1, recombinant human CLEC12A-His. The assay can be described thus: SPR, purified murine mAb. (In SPR one partner is held on a chip, and binding of the other changes the refractive index at the surface.)
The target of assay [3] is B2. The experiment in a line: flow cytometry, PL21 cells.
Protocol: The ability of the eight purified subcloned mAbs to bind to CLEC12A expressing cells was assessed by FACS analysis with human CLEC12A-positive PL21 cancer cell line.
Assay [4] deals with T2, cynomolgus CLEC12A expressed on RMA …. The assay can be described thus: flow cytometry, RMA-cCLEC12A, hybridoma supernatant.
Protocol: Briefly, RMA cells were transducted with a retroviral vector encoding cCLEC12A or hCLEC12A. […] 100,000 RMA, REH or SEM cells were added per well of a 96 well round bottom plate. Cells were spun down and the pellet was gently dissociated by vortexing. 100 μL of Zombie live/dead dye (PBS+1:2000 dye) were added per well and incubated in the dark at room temperature for 20 minutes. Cells were washed with 200 μL of FACS buffer (PBS+2% FBS). 50 μL of hybridoma supernatants were added to the washed cells and the mixtures were incubated for 30 minutes on ice in the dark. Cells were washed twice with FACS buffer and then 50 μL of anti-mouse Fc-PE secondary reagent (1:200 dilution) were added and incubated for 20 minutes on ice in the dark. After the incubation, the cells were washed and then fixed with 50 μL of 4% paraformaldehyde for 15 minutes on ice. The fixed cells were washed with FACS buffer, resuspended in 200 μL FACS buffer, and stored at 4° C. until ready for acquisition. The samples of cells resuspended in FACS buffer were run on BD FACSCelesta equipped with an HTS (high throughput sampler) to determine the binding affinities of the antibodies to isogenic RMA cells expressing CLEC12A and the U937 AML cancer cell line.
Assay [5] has as its target T3, recombinant cynomolgus CLEC12A-His. The experiment in a line: SPR, purified murine subclone mAb and Cyno CLEC12A-His.
For assay [6], the target named is T1, recombinant human CLEC12A-His. The experiment in a line: SPR; sensorgrams of a CLEC12A concentration series with fit overlays (response up to about 18, time axis 0 to about 900).
The target in assay [7] is B2. The experiment in a line: flow cytometry (MFI) on CLEC12A+ PL-21 AML cells, about 0.2 to 130 nM, plateau about 250 MFI; the molecule is assigned by panel order and legend paragraph 296.
In assay [8] the target is T3, recombinant cynomolgus CLEC12A-His. The assay can be described thus: SPR, purified murine subclone mAb and Cyno CLEC12A-His. This is another data set of the same source.
In assay [9] the target is T1, recombinant human CLEC12A-His. The experiment in a line: SPR.
The target of another assay is T4, de-sialylated hCLEC12A. The experiment in a line: SPR.
For a further assay, the target named is T5, de-glycosylated hCLEC12A. The assay can be described thus: SPR.
The target of assay [10] is T1, recombinant human CLEC12A-His. The assay can be described thus: SPR screening, fully purified mAb.
Assay [11] shares this target. The assay can be described thus: SPR, CLEC12A binding.
Assay [12] has as its target B2. The experiment in a line: flow cytometry (gMFI) on CLEC12A+ PL-21 AML cells.
Assay [13] has as its target T3, recombinant cynomolgus CLEC12A-His. The assay can be described thus: SPR, purified murine subclone mAb and Cyno CLEC12A-His. This is another data set of the same source.

Protocol for AB0300: The cells were then incubated with a fluorophore conjugated anti-human IgG secondary antibody and were analyzed by flow cytometry. The mean fluorescence intensity (MFI) values were normalized to secondary antibody only controls to obtain fold over background (FOB) values.
100,000 cells were seeded per well into a 96-well plate for FACS staining. Cells were washed with PBS. Cells were incubated in a 1:2000 dilution of live/dead dye in PBS for 15 minutes, then washed with FACS buffer. TriNKETs or mAbs were diluted into FACS buffer, and 50 μl containing diluted TriNKET or mAb was added to cells. Cells were incubated on ice for 20 minutes. After the incubation, cells were washed with FACS buffer. Anti-human IgG-Fc secondary antibody was diluted into FACS buffer, and 50 μl was added per well for detection of the bound TriNKETs or mAbs. Cells were incubated for 20 minutes on ice, then washed with FACS buffer. 50 μl of fixation buffer was added to each well, and cells were incubated for 10 minutes at room temperature. Cells were washed with FACS buffer and resuspended in FACS buffer for analysis with BD FACS Celesta SN #H66034400085, or BD FACS Celesta SN #H66034400160. Cells of interest were identified using FSC vs. SSC plot, and an appropriately shaped gate was drawn around the cells. Within the gated cells, doublet cells were removed by viewing FSC-H vs FSC-A plot. Within the single cell population, live cells were gated. Within the live gate, the mean fluorescence intensity (MFI) of each sample and the secondary-only control was calculated. Fold-over-background (FOB) was calculated as the ratio of test article MFI over secondary-only background MFI. Data were fit to a four-parameter non-linear regression curve using GraphPad Prism 7.0.

For B1, the binding result in assay [1] is listed as “binds”.
Regarding B2, the binding result in the assay with AB0300 is on record as “binds”.
On to B3, for which, in assay [2], the Kd was determined as 1.4 nM, the koff is 0.00157 s⁻¹ and the on-rate constant (kon) was 1.14e+06 M⁻¹ s⁻¹. Further, in assay [3], a half-maximal response (EC50) required 0.56 nM and the “Max MFI” value was 217 MFI. Further, the binding result in assay [4] is listed as “no binding”. For the same molecule, in [5], the binding result is “no binding”. In assay [6], the Kd was found to be 1.1 nM. Moreover, the EC50 in assay [7] amounted to 0.5 nM.
Consider B4, for which, in [3], the concentration for a half-maximal effect (EC50) was 0.64 nM and the “Max MFI” value was found to be 186 MFI. Besides, in assay [4], the binding result is “no binding”. In addition, the binding result in assay [8] is on record as “no binding”.
Consider B5, for which the Kd was 0.012 nM in [9]; 7 pM with de-sialylated hCLEC12A; 0.011 nM in the assay with de-glycosylated hCLEC12A; 0.01 nM in assay [2]; 8 pM in [10]; no more than 0.011 nM in assay [11]. The koff worked out at 4.7e-05 s⁻¹ in [9]; 3.62e-05 s⁻¹ with de-sialylated hCLEC12A; 4.45e-05 s⁻¹ with de-glycosylated hCLEC12A; 4.44e-05 s⁻¹ in assay [2]; 2.35e-05 s⁻¹ in [10]. Also, the kon in assay [9] was found to be 4.05e+06 M⁻¹ s⁻¹; in the assay with de-sialylated hCLEC12A it was 5.25e+06 M⁻¹ s⁻¹; with de-glycosylated hCLEC12A it was 4.26e+06 M⁻¹ s⁻¹; in assay [2], 4.05e+06 M⁻¹ s⁻¹; in assay [10], 3.03e+06 M⁻¹ s⁻¹. For the same molecule, the results for the EC50 in assay [3] and in assay [12] were 0.18 nM and 0.2 nM, respectively. In addition, the “Max MFI” value in assay [3] stood at 300 MFI. The binding result in [4] and in [13] was “no binding” in each case.

By Kd is commonly meant a measure of binding affinity in units of concentration. One may read the koff as the rate constant with which the complex falls apart. The kon is a measure of how fast the partners come together. A word on the EC50: it is the concentration giving half of the maximal effect. Read a high EC50 as weaker potency.
